Experimental data published in patent US20240075152A1.

How the values were obtained:
[1] = target: GCN4-p2L variant (trimeric variant of GCN4 peptide with N-terminal NTA and C-terminal His2), assembled into hexagonal 3D crystals with Zn2+; assay: crystals dissolved with EDTA; peptide by UPLC, protein by fluorescence spectroscopy
[2] = target: GCN4-p2L variant (trimeric variant of GCN4 peptide with N-terminal NTA and C-terminal His2), assembled into hexagonal 3D crystals with Zn2+; assay: derived from the EDTA dissolution data and the hourglass volume (about 50%)

coiled-coil units for each protein guest (coiled-coil units per protein) [1]: 60 to 70
ratio of peptide to protein cargo in the crystals (peptide : protein) [1]: 200
coiled-coils for each protein guest within the hourglass section (coiled-coils per protein) [2]: 30 to 35
Substance: Enhanced green fluorescent protein with an N-terminal His6-tag (EGFP)
